Results from publication PMC3635987.

Target: PrgH_(11–120), cytoplasmic domain of the inner-membrane ring protein PrgH (Salmonella enterica serovar Typhimurium) (UniProt P41783)
Assay: crystal structure; PrgH_(11–120) at 5–10 mg/ml, 20°C, 15–20% PEG 6000, 0.02 M CaCl2, 0.1 M HEPES pH 6.5; packing in the asymmetric unit

“PrgH_(11–120), cytoplasmic domain of the inner-membrane ring protein PrgH (from UniProt P41783 11-120) (domain or fragment)” was tested, and the stoichiometry N was 6.
